Assay results as given in the Immune Epitope Database (IEDB).
Values belong to the sequence of their own block, whether it stands above or below them.

Legend:
[1] = biological target: HLA-A*02:12; experiment: IEDB peptide-MHC binding, purified MHC/direct/fluorescence; filed as Kd, often an IC50 or EC50 that approximates it; ≥ and ≤ were set here for values at or beyond the usual limits of such assays
[2] = biological target: HLA-A*02:01; experiment: as above
[3] = biological target: HLA-B*46:01; experiment: as above
[4] = biological target: HLA-A*02:11; experiment: as above
[5] = biological target: HLA-B*15:01; experiment: as above
[6] = biological target: HLA-A*03:01; experiment: as above
[7] = biological target: HLA-A*02:16; experiment: as above
[8] = biological target: HLA-B*57:01; experiment: as above
[9] = biological target: HLA-A*69:01; experiment: as above
[10] = biological target: HLA-B*18:01; experiment: as above
[11] = biological target: HLA-A*02:19; experiment: as above
[12] = biological target: HLA-B*51:01; experiment: as above
[13] = biological target: HLA-A*02:03; experiment: as above
[14] = biological target: HLA-B*27:03; experiment: as above
[15] = biological target: HLA-A*68:02; experiment: as above
[16] = biological target: HLA-B*15:17; experiment: IEDB peptide-MHC binding, purified MHC/competitive/fluorescence; filed as Kd, often an IC50 or EC50 that approximates it; ≥ and ≤ were set here for values at or beyond the usual limits of such assays
[17] = biological target: HLA-B*48:01; experiment: as above
[18] = biological target: HLA-B*07:02; experiment: as above
[19] = biological target: HLA-C*07:02; experiment: IEDB peptide-MHC binding, purified MHC/direct/fluorescence; filed as Kd, often an IC50 or EC50 that approximates it; ≥ and ≤ were set here for values at or beyond the usual limits of such assays; details: source organism: Entamoeba histolytica HM-1:IMSS
[20] = biological target: HLA-A*24:03; experiment: as above
[21] = biological target: HLA-B*39:01; experiment: as above
[22] = biological target: HLA-A*26:01; experiment: as above
[23] = biological target: HLA-A*29:02; experiment: IEDB peptide-MHC binding, purified MHC/competitive/radioactivity; filed as Kd, often an IC50 or EC50 that approximates it; ≥ and ≤ were set here for values at or beyond the usual limits of such assays; details: source organism: Mammarenavirus machupoense
[24] = biological target: HLA-A*30:02; experiment: as above; details: source organism: Mammarenavirus machupoense
[25] = biological target: HLA-A*30:01; experiment: as above; details: source organism: Mammarenavirus machupoense
[26] = biological target: HLA-A*01:01; experiment: as above; details: source organism: Mammarenavirus machupoense
[27] = biological target: HLA-A*32:01; experiment: as above; details: source organism: Mammarenavirus machupoense
[28] = biological target: HLA-A*11:01; experiment: IEDB peptide-MHC binding, purified MHC/direct/fluorescence; filed as Kd, often an IC50 or EC50 that approximates it; ≥ and ≤ were set here for values at or beyond the usual limits of such assays; details: source organism: Marburg virus - Musoke, Kenya, 1980
[29] = biological target: HLA-B*27:05; experiment: as above; details: source organism: Marburg virus - Musoke, Kenya, 1980
[30] = biological target: HLA-A*01:01; experiment: as above; details: source organism: Marburg virus - Musoke, Kenya, 1980
[31] = biological target: HLA-B*08:02; experiment: as above; details: source organism: Orthomarburgvirus marburgense
[32] = biological target: HLA-B*40:01; experiment: as above; details: source organism: Marburg virus - Musoke, Kenya, 1980
[33] = biological target: HLA-B*58:01; experiment: as above; details: source organism: Marburg virus - Musoke, Kenya, 1980
[34] = biological target: HLA-A*31:01; experiment: as above; details: source organism: Marburg virus - Musoke, Kenya, 1980
[35] = biological target: HLA-A*02:01; experiment: IEDB peptide-MHC binding, purified MHC/competitive/fluorescence; filed as Kd, often an IC50 or EC50 that approximates it; ≥ and ≤ were set here for values at or beyond the usual limits of such assays; details: source organism: Orthomarburgvirus marburgense
[36] = biological target: HLA-A*02:06; experiment: as above; details: source organism: Orthomarburgvirus marburgense
[37] = biological target: HLA-A*69:01; experiment: as above; details: source organism: Orthomarburgvirus marburgense
[38] = biological target: HLA-B*15:01; experiment: as above; details: source organism: Escherichia coli O157:H7 str. EDL933
[39] = biological target: HLA-B*39:01; experiment: as above; details: source organism: Escherichia coli O157:H7 str. EDL933
[40] = biological target: HLA-B*08:01; experiment: as above; details: source organism: Escherichia coli O157:H7 str. EDL933
[41] = source organism: Rickettsia sibirica 246
[42] = source organism: Salmonella enterica subsp. enterica serovar Typhimurium
[43] = source organism: Mammarenavirus machupoense
[44] = source organism: Marburg virus - Musoke, Kenya, 1980
[45] = source organism: Orthomarburgvirus marburgense
[46] = source organism: Encephalitozoon cuniculi GB-M1

Sequence: APVESMALF
Kd [1, 41]: ≥ 20 µM
Kd [2, 41]: ≥ 20 µM
Kd [3, 41]: ≥ 20 µM
Kd [4, 41]: ≥ 20 µM
Kd [5, 41]: ≥ 20 µM
Kd [6, 41]: ≥ 20 µM
Kd [7, 41]: ≥ 20 µM
Kd [8, 41]: ≥ 20 µM
Kd [9, 41]: ≥ 20 µM
Kd [10, 41]: ≥ 20 µM
Kd [11, 41]: ≥ 20 µM
Kd [12, 41]: ≥ 20 µM
Kd [13, 41]: ≥ 20 µM
Kd [14, 41]: ≥ 20 µM
Kd [15, 41]: ≥ 20 µM
Kd [16, 41]: 15.1 µM

Kd ([17]; source organism: Escherichia coli O139:H28 str. E24377A): ≥ 20 µM
Sequence: AQELVGHQL

Sequence: FPSSSYRRPV
Kd ([18]; source organism: Influenza A virus (A/Fort Monmouth/1/1947-mouse adapted(H1N1))): 0.0016 µM

Sequence: FQFTLHWEL
Kd [19]: 2.05 µM
Kd ([17]; source organism: Entamoeba histolytica HM-1:IMSS): 0.726 µM

Sequence: GQAARDKHL
Kd ([17]; source organism: Burkholderia vietnamiensis G4): ≥ 20 µM

Sequence: LAMLVLHQV
Kd [3, 42]: ≥ 20 µM
Kd [5, 42]: ≥ 20 µM
Kd [20, 42]: ≥ 20 µM
Kd [6, 42]: ≥ 20 µM
Kd [21, 42]: ≥ 20 µM
Kd [8, 42]: ≥ 20 µM
Kd [22, 42]: ≥ 20 µM
Kd [10, 42]: ≥ 20 µM
Kd [12, 42]: 0.416 µM
Kd [14, 42]: ≥ 20 µM

Sequence: LITEQFLCY
Kd [23]: 0.00132 µM
Kd [24]: 1.86 µM
Kd [25]: 6.33 µM
Kd [26]: 0.0647 µM
Kd [27]: ≥ 25 µM
Kd [1, 43]: ≥ 20 µM
Kd [2, 43]: ≥ 20 µM
Kd [4, 43]: ≥ 20 µM
Kd [7, 43]: ≥ 20 µM
Kd [21, 43]: ≥ 20 µM
Kd [8, 43]: ≥ 20 µM
Kd [9, 43]: ≥ 20 µM
Kd [22, 43]: ≥ 20 µM
Kd [10, 43]: ≥ 20 µM
Kd [11, 43]: ≥ 20 µM
Kd [12, 43]: ≥ 20 µM
Kd [13, 43]: ≥ 20 µM
Kd [14, 43]: ≥ 20 µM
Kd [15, 43]: ≥ 20 µM

Sequence: LYKTIVNIW
Kd [28]: ≥ 20 µM
Kd [3, 44]: ≥ 20 µM
Kd [29]: ≥ 20 µM
Kd [5, 44]: ≥ 20 µM
Kd [20, 44]: 0.16 µM
Kd [6, 44]: ≥ 20 µM
Kd [21, 45]: ≥ 20 µM
Kd [30]: ≥ 20 µM
Kd [8, 44]: ≥ 20 µM
Kd [31]: ≥ 20 µM
Kd [22, 45]: ≥ 20 µM
Kd [10, 44]: ≥ 20 µM
Kd [32]: ≥ 20 µM
Kd [33]: ≥ 20 µM
Kd [34]: ≥ 20 µM
Kd [35]: 0.0509 µM
Kd [17, 45]: ≥ 20 µM
Kd [16, 45]: ≥ 20 µM
Kd [36]: 0.11 µM
Kd [37]: 1.58 µM

Kd [1, 46]: ≥ 20 µM
Kd [2, 46]: ≥ 20 µM
Kd [3, 46]: ≥ 20 µM
Kd [4, 46]: ≥ 20 µM
Kd [5, 46]: ≥ 20 µM
Kd [20, 46]: ≥ 20 µM
Kd [6, 46]: ≥ 20 µM
Kd [7, 46]: ≥ 20 µM
Kd [8, 46]: ≥ 20 µM
Kd [22, 46]: ≥ 20 µM
Kd [10, 46]: ≥ 20 µM
Kd [11, 46]: ≥ 20 µM
Kd [12, 46]: 0.074 µM
Kd [13, 46]: ≥ 20 µM
Kd [14, 46]: ≥ 20 µM
Sequence: MPFDPSELV

Kd [38]: 0.08 µM
Kd [39]: 0.061 µM
Kd ([18]; source organism: Escherichia coli O157:H7 str. EDL933): 0.007 µM
Kd [40]: 0.197 µM
Sequence: MQRSGMLSL
